Results taken from the supplement of paper PMC10724198.
± gives the standard deviation of the averaged measurements.

System: Saccharomyces cerevisiae
Assay: protein stability index of tFT-peptide fusion (C-terminal peptide) (PSI (0-1 scale)); higher = more stable (slower turnover)
Conditions: genetic background: wild type; temperature: 30 C
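Also: PSI is a weighted mean of sequencing reads over stability bins, variants kept only with over 10 reads, mCherry proximal and sfGFP distal, peptide attached via GGGS linker.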

Sequence	protein stability index
LPVPPPPVSVAN	0.554 ± 0.0089
LPVSPDTLSPPL	0.678 ± 0.022
LPWGGVVVGSMV	0.73 ± 0.019
LQCGDWVETTGS	0.709 ± 0.031
LQHSLNRKEIET	0.688 ± 0.014
LQLFLWRVVAPV	0.477 ± 0.038
LQLLPPGLRQLP	0.679 ± 0.0079
LQTLSTLLPSLL	0.689 ± 0.023
LRANSCCPLFGS	0.739 ± 0.0036
LRARTPPPSHLP	0.693 ± 0.02
LRCWVGGALCGG	0.685 ± 0.033
LREKFFWTRIRR	0.724 ± 0.05
LRFLPHIPSGLS	0.716 ± 0.019
LRFRPLSGRAFF	0.664 ± 0.051
LRFSFFSSLFVL	0.516 ± 0.019
LRGAGAGPEDVG	0.6847 ± 0.0026
LRGGGGAGVFFG	0.6491 ± 0.0025
LRHGLASYDHCG	0.681 ± 0.02
LRHHARSYLPRL	0.805 ± 0.18
LRLFCVLARSVV	0.528 ± 0.018
LRLHPSPPVPSR	0.7003 ± 0.0047
LRPLSFPTHTLL	0.685 ± 0.021
LRPPFFLSPLPS	0.728 ± 0.034
LRPPLASLRFSP	0.78 ± 0.11
LRQQTRGTIIEC	0.703 ± 0.029
LRRAFPSSTPLK	0.698 ± 0.088

Sequence	protein stability index
LRSGFVVTLSLS	0.621 ± 0.037
LRSLNIVGTTAL	0.66 ± 0.043
LRSLVRSRPAPP	0.6744 ± 0.0042
LRSVISLSSLFS	0.686 ± 0.011
LRTKRGKREEYD	0.73 ± 0.015
LRVFPVFSWFDR	0.678 ± 0.15
LRYSPLLFLSVV	0.513 ± 0.013
LSALPSRPCSKR	0.6893 ± 0.005
LSAVISHLGNSK	0.65058 ± 0.0002
LSCTTSSRPSPP	0.699 ± 0.063
LSDDRTLFWISG	0.728 ± 0.13
LSDFSLPTFLLL	0.72 ± 0.065
LSFFLSSALLHP	0.7 ± 0.028
LSFPSPSLCRPL	0.694 ± 0.1
LSFSDPLSLPRH	0.675 ± 0.079
LSFTFSQLLSFP	0.681 ± 0.16
LSGPLILHLTSL	0.693 ± 0.057
LSGRGVGSEGME	0.721 ± 0.14
LSGTLALVVFTR	0.6464 ± 0.001
LSGYIFFSFRSF	0.505 ± 0.01
LSKTRRPKSADM	0.7 ± 0.025
LSLGVYMGVGRG	0.629 ± 0.0074
LSLICSLVHSIM	0.635 ± 0.016
LSLPRCPKGVAH	0.672 ± 0.055
LSLSNILDYFYC	0.685 ± 0.044
LSLSTTLSADLY	0.678 ± 0.021

Sequence	protein stability index
LSLVDCIGFFFC	0.603 ± 0.043
LSLYGLLLPTFE	0.714 ± 0.037
LSPALPPPMSAA	0.577 ± 0.026
LSPCPPLRPLLS	0.676 ± 0.081
LSPFPSCLPPSV	0.702 ± 0.045
LSPGPVHDRSRP	0.675 ± 0.03
LSPIPLPPPLTS	0.699 ± 0.044
LSPLHSPCLPCP	0.679 ± 0.039
LSPPPSPLPPLP	0.679 ± 0.019
LSPRPPSPPPPP	0.688 ± 0.011
LSPRTMYHAYPV	0.712 ± 0.067
LSPSGATFWTPS	0.676 ± 0.055
LSRGGVSCWWGH	0.772 ± 0.033
LSRGLVVSFVLK	0.662 ± 0.014
LSSFIHCLYSHC	0.606 ± 0.035
LSSRVYDCTRQG	0.675 ± 0.045
LSSSLLSLLYNF	0.534 ± 0.039
LSTCVAESIEST	0.68 ± 0.01
LSTPPRLPQPSP	0.703 ± 0.051
LSVLPAFYPRSP	0.758 ± 0.045
LSVPPFSFTLSL	0.807 ± 0.25
LSVPWSTRPFSV	0.703 ± 0.019
LSYSLSSPRVFH	0.7337 ± 0.0022
LTDITGSIRNVH	0.673 ± 0.037
LTDKHNETNINQ	0.6501 ± 0.0042
LTFSRFIENHYL	0.662 ± 0.015

Sequence	protein stability index
LTGSPDSNPNSV	0.68 ± 0.084
LTHQENNIWVSR	0.703 ± 0.057
LTLPPLPPPSLP	0.707 ± 0.0081
LTLTQAPVRTDF	0.677 ± 0.018
LTPFFSRPSVLL	0.72 ± 0.019
LTPRPLPRLSPP	0.705 ± 0.028
LTPYLYPQPSSP	0.673 ± 0.031
LTQPPPAPRVFF	0.699 ± 0.013
LTRRSPSPRTLT	0.644 ± 0.03
LTSLIPPLPFLF	0.669 ± 0.032
LTSSGLSFSAVL	0.7249 ± 0.0027
LTYLLFPSSLQA	0.677 ± 0.04
LVAYSPRFLHSP	0.669 ± 0.038
LVCLFRGCGLRD	0.714 ± 0.0084
LVCRYLGLRCSD	0.597 ± 0.035
LVFCPCQSVVSL	0.59 ± 0.043
LVFGRGCGWLSG	0.664 ± 0.0071
LVFRPVPVIFGL	0.635 ± 0.017
LVFSTLGSCFDG	0.685 ± 0.0099
LVGFGGGGDGVV	0.693 ± 0.032
LVGGGDRPGLGR	0.66 ± 0.0079
LVGHENIVVRRA	0.72 ± 0.011
LVGQVKYMIKEQ	0.684 ± 0.028
LVGSSYGRTDML	0.715 ± 0.016
LVLDCPISEVLL	0.6403 ± 0.0055
LVLLPSASPLLL	0.71 ± 0.044

Sequence	protein stability index
LVLVRPGSVSPE	0.731 ± 0.018
LVLYPFPPLHST	0.6749 ± 0.0053
LVPTQGDFVVLL	0.721 ± 0.053
LVRCGLGASVVV	0.651 ± 0.041
LVRGGHRLSFRL	0.732 ± 0.015
LVSGASHWPSYT	0.694 ± 0.014
LVSPLARLGLMI	0.787 ± 0.05
LVSPPTPPPFPP	0.702 ± 0.059
LVSSSPLPFSPI	0.646 ± 0.079
LVYLASGMYRFV	0.607 ± 0.02
LWAGGVAVAVSR	0.638 ± 0.045
LWCDPVLVLELR	0.776 ± 0.072
LWCWVGGALCGG	0.742 ± 0.17
LWGIAGSGVLVG	0.635 ± 0.0069
LWQGGRAFWQPV	0.679 ± 0.046
LWVGGVGRVRGV	0.69144 ± 0.00047
LWVGVVGRVRGV	0.6609 ± 0.0062
LYGASRCLVARS	0.664 ± 0.0093
LYICNYFKFKKR	0.7096 ± 0.0069
LYIRHPPSAPLP	0.808 ± 0.13
LYKEQRNNCGKI	0.662 ± 0.021
LYLCFDVVKDLG	0.582 ± 0.015
LYPRPSRFPPLL	0.732 ± 0.087
LYRPFTAVPPSI	0.816 ± 0.082
LYTISAGEDELN	0.699 ± 0.018
LYTSPLPAAFQL	0.726 ± 0.038

Sequence	protein stability index
LYYSEKRIKNVN	0.643 ± 0.077
MAEAVVLDPDMV	0.6831 ± 0.0055
MCCSVGGLFFFF	0.649 ± 0.04
MCFLSCCSFRFC	0.6162 ± 0.0044
MCVSSSAGVRQE	0.638 ± 0.054
MDGRVMAETCRA	0.585 ± 0.038
MDHSGYWDISCG	0.801 ± 0.099
MDIVIGSQTEAN	0.7365 ± 0.0036
MERAGTAEGGGA	0.655 ± 0.008
MGAGGGLCGMWA	0.705 ± 0.054
MGGGGGLCGMWA	0.723 ± 0.021
MGHLFIPSQSQS	0.715 ± 0.048
MGKNDSITPELA	0.712 ± 0.029
MGVGCFCCLFVG	0.541 ± 0.011
MHGVSSGSSLVN	0.63 ± 0.038
MIASGGGGEAAY	0.742 ± 0.081
MIGWQADSINKI	0.783 ± 0.022
MISIKNEKKKYT	0.685 ± 0.069
MITQVIKRRKRK	0.688 ± 0.041
MKLWSDALNVVR	0.607 ± 0.12
MKRIRKTKIKAR	0.624 ± 0.074
MKRQQENNAPGR	0.616 ± 0.018
MLGHKIILHTYI	0.54735 ± 0.00019
MLRSGDFSSPPN	0.694 ± 0.042
MNRKEREKKRIK	0.697 ± 0.023
MNVPRQLISRFV	0.683 ± 0.064

Sequence	protein stability index
MPHLARVREVVH	0.6178 ± 0.0026
MQNDKCWVCNQR	0.693 ± 0.029
MRIKSMLHHSKV	0.66213 ± 0.00021
MRIMERWVMGGG	0.795 ± 0.16
MSLLCPSPPFPT	0.695 ± 0.068
MSWSVSDIADDS	0.657 ± 0.0075
MTSSYLCWDVIG	0.632 ± 0.071
MVRNCPYSLSFL	0.734 ± 0.07
MVRWGLGRVYGC	0.786 ± 0.1
MVSSIESHIVLY	0.66 ± 0.0078
MYPFKYGFASWV	0.583 ± 0.016
NALFDLAVMCLD	0.664 ± 0.028
NALLHPRSHLAF	0.686 ± 0.033
NCSPLCLRVASS	0.647 ± 0.029
NDGKTKRVKKRR	0.619 ± 0.065
NDQWKKENRGKK	0.737 ± 0.013
NEQGTIIKRYKK	0.737 ± 0.045
NESCRNREPGHV	0.664 ± 0.1
NESSYGNEKNLG	0.723 ± 0.021
NFATLFSLCCLY	0.611 ± 0.011
NFFTLTRCTLFI	0.66684 ± 0.00029
NFMTEGYFWRGE	0.767 ± 0.0087
NFPEATPSNYKV	0.737 ± 0.015
NFYKKLSNKMGQ	0.662 ± 0.039
NGDPRVHTAVAR	0.704 ± 0.054
NGGGMPDRVVSI	0.722 ± 0.024

Sequence	protein stability index
NGQVAGVGNVAW	0.678 ± 0.015
NGSAYEGRDYAN	0.626 ± 0.02
NICLPLAHRTPG	0.655 ± 0.017
NIHRKLIKNERV	0.694 ± 0.046
NIKKKKKETKNN	0.676 ± 0.024
NIKKNQRKEASK	0.698 ± 0.039
NKGHGAHSRECE	0.65 ± 0.025
NKIKKKRTEPQP	0.66522 ± 7.3e-05
NKKKEKKKNEAK	0.684 ± 0.016
NKKKNKKEEHVE	0.688 ± 0.047
NKKTKNNKGNKQ	0.728 ± 0.063
NKMLCTTEGVAA	0.644 ± 0.038
NKPPGVGHGGVT	0.672 ± 0.025
NKRKSKKRNEIE	0.6701 ± 0.0054
NKSHFGHSCYLR	0.64 ± 0.013
NKTKIKKKKKRG	0.657 ± 0.013
NKYEMRDDTMNI	0.681 ± 0.056
NLGLSGRYAPCK	0.689 ± 0.0072
NLRFLFFSSSRF	0.682 ± 0.017
NLSLYFGGVLVL	0.603 ± 0.027
